Measurements reported in paper PMC12067093 (2025).

B1: TRIM25 PRYSPRY (protein)
chain: KVLETFLAKSRPELLEYYIKVILDYNTAHNKVALSECYTVASVAEMPQNYRPHPQRFTYCSQVLGLHCYKKGIHYWEVELQKNNFCGVGICYGSMNRQGPESRLGRNSASWCVEWFNTKISAWHNNVEKTLPSTKATRVGVLLNCDHGFVIFFAVADKVHLMYKFRVDFTEALYPAFWVFSAGATLSICSPK
modifications: TRIM25 covalently pre-labelled with heterobifunctional compound HB2
B2: TRIM25 PRYSPRY (protein)
chain: KVLETFLAKSRPELLEYYIKVILDYNTAHNKVALSECYTVASVAEMPQNYRPHPQRFTYCSQVLGLHCYKKGIHYWEVELQKNNFCGVGICYGSMNRQGPESRLGRNSASWCVEWFNTKISAWHNNVEKTLPSTKATRVGVLLNCDHGFVIFFAVADKVHLMYKFRVDFTEALYPAFWVFSAGATLSICSPK
modifications: TRIM25 covalently pre-labelled with heterobifunctional compound HB3
B3: TRIM25 PRYSPRY (protein)
chain: KVLETFLAKSRPELLEYYIKVILDYNTAHNKVALSECYTVASVAEMPQNYRPHPQRFTYCSQVLGLHCYKKGIHYWEVELQKNNFCGVGICYGSMNRQGPESRLGRNSASWCVEWFNTKISAWHNNVEKTLPSTKATRVGVLLNCDHGFVIFFAVADKVHLMYKFRVDFTEALYPAFWVFSAGATLSICSPK
modifications: TRIM25 covalently pre-labelled with heterobifunctional compound HB1

What follows are binders tested against BRD4 BD2 (Homo sapiens, UniProt O60885) (assay: SPR).
In the case of B1, the Kd is reported as 20 nM. Work on B2 yielded a Kd of 22.5 nM. For B3, the Kd was 15 nM.
